Measurements from patent US20240025949A1, “Beta-Arrestin Effectors and Compositions and Methods of Use Thereof” (Trevena, Inc., priority 2021, published 2024).

Columns and labels:
[1] = target: rat angiotensin 2 type 1 receptor (rat) (UniProt P25095); test: cell-based or functional assay
[2] = target: human angiotensin 2 type 1 receptor (human) (UniProt P30556); test: cell-based or functional assay
Sequence of human angiotensin 2 type 1 receptor (human) (P30556 whole entry): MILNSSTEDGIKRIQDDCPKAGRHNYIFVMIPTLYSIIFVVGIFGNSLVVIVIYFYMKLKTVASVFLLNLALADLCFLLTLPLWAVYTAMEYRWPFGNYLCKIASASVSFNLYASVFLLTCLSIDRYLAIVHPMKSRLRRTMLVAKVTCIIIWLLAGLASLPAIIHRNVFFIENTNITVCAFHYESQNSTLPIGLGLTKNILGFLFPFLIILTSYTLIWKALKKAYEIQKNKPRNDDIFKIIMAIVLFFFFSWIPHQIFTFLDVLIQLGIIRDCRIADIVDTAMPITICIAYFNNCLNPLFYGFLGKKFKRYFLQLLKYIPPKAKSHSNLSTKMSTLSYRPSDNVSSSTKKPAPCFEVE

Sequence of rat angiotensin 2 type 1 receptor (rat) (P25095 whole entry): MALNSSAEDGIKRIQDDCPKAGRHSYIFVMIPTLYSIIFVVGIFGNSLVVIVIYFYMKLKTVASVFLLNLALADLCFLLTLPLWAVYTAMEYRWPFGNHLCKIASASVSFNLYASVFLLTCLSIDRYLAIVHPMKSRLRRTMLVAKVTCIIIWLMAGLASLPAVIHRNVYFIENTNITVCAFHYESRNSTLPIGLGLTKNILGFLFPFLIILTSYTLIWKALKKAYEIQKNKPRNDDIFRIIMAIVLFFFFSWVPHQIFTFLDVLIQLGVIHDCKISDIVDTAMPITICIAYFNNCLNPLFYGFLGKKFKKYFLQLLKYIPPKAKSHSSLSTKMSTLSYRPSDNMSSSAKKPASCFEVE

IP One EC50 [1] | b-arrestin2 EC50 [1] | b-arrestin2 Max [1] | b-arrestin2 Max [2] | IP One Max [1] | IP One EC50 [2] | b-arrestin2 EC50 [2] | IP One Max [2] | Molecule
> 10000 nM | 16 nM | 84.2% | – | – | – | – | – | SEQ ID NO: 27 (Sar-Arg-Val-Tyr-Ile-His-Pro-D-Ala-OH) (peptide)
360 nM | – | – | 24.9% | 33.8% | – | – | – | SEQ ID NO: 2 (Sar-Arg-Val-Ile-Ile-His-Pro-Ile-NH2) (peptide)
> 10000 nM | 10000 nM | 58.5% | 30.6% | – | > 10 µM | 6700 nM | – | SEQ ID NO: 66 (N-Me-Glu-Arg-Val-Tyr-Phe-His-Pro-NH2) (peptide)
> 10000 nM | 16 nM | 80.6% | 50.5% | – | > 10 µM | 32 nM | – | SEQ ID NO: 84 (Sar-Arg-Val-Tyr-OMTh-His-Pro-D-Ala-OH) (peptide)
8.2 nM | 65 nM | 71.9% | 47.3% | 14.6% | > 10 µM | 80 nM | – | SEQ ID NO: 44 (NMAla-Arg-Val-Tyr-Ile-His-Pro-D-Ala-OH) (peptide)
> 10000 nM | 870 nM | 26.9% | 20.4% | – | > 10 µM | 1200 nM | – | SEQ ID NO: 64 (Glu-Arg-Val-Tyr-Phe-His-Pro-NH2) (peptide)
– | – | 77% | 57.9% | 14.1% | – | – | – | SEQ ID NO: 25 (Asp-Arg-Val-Tyr-Ile-His-Pro-Ala-OH) (peptide)
> 10000 nM | 50 nM | 70.2% | 34.3% | – | > 10 µM | 200 nM | – | SEQ ID NO: 83 (Sar-Arg-Val-Tyr-NVA-His-Pro-D-Ala-OH) (peptide)
– | – | 60.3% | – | 13.3% | – | – | – | SEQ ID NO: 10 (Sar-Arg-Val-Tyr-Ile-His-Pro-Ala-NH2) (peptide)
35 nM | 200 nM | 41.8% | 36.9% | 11.3% | > 10 µM | 210 nM | – | SEQ ID NO: 8 (Sar-Arg-Val-Tyr-Val-His-Pro-Ala-NH2) (peptide)
24 nM | 43 nM | 80.2% | 55.6% | 6.8% | – | 79 nM | – | SEQ ID NO: 32 (Me2G-Arg-Val-Tyr-Ile-His-Pro-Ala-OH) (peptide)
– | – | 74% | – | 9.5% | – | – | – | SEQ ID NO: 9 (Sar-Arg-Val-Tyr-Ile-His-Pro-Ala-OH) (peptide)
41 nM | 120 nM | 67.1% | 36.5% | 19.6% | > 10 µM | 450 nM | – | SEQ ID NO: 3 (Sar-Arg-Val-Ile-Val-His-Pro-Ile-OH) (peptide)
59 nM | > 10000 nM | – | 12.1% | 21.9% | 0.11 µM | 920 nM | 14.1% | SEQ ID NO: 6 (Sar-Arg-Val-Gly-Val-His-Pro-Gly-NH2) (peptide)
> 10000 nM | 130 nM | 60.6% | 38.3% | – | > 10 µM | 320 nM | – | SEQ ID NO: 82 (NM-D-Ala-Arg-Val-Tyr-Ile-His-Pro-D-Ala-OH) (peptide)
> 10000 nM | 2800 nM | 67.3% | 37.8% | – | > 10 µM | 2000 nM | – | SEQ ID NO: 65 (N-Me-Asp-Arg-Val-Tyr-Phe-His-Pro-NH2) (peptide)
> 10000 nM | 8.2 nM | 80.4% | 68.2% | – | > 10 µM | 9.2 nM | – | SEQ ID NO: 30 (Sar-Arg-Val-Tyr-OMTh-His-Pro-Ala-OH) (peptide)
96 nM | 1900 nM | 61.7% | 39.4% | 24.8% | 0.065 µM | 1600 nM | 18.1% | SEQ ID NO: 5 (Sar-Arg-Val-Gly-Val-His-Pro-Gly-OH) (peptide)
> 10000 nM | 200 nM | 64.8% | 43.3% | – | > 10 µM | 590 nM | – | SEQ ID NO: 29 (Sar-Arg-Val-OMTyr-Ile-His-Pro-Ala-OH) (peptide)
64 nM | 19 nM | 91.4% | 82.9% | 24.6% | > 10 µM | 20 nM | – | RVYYHP (N-terminal Sar; C-terminal D-Phe) [SEQ ID NO: 28 (Sar-Arg-Val-Tyr-Tyr-His-Pro-D-Phe-OH)]
> 10000 nM | 38 nM | 77.3% | 51.9% | – | > 10 µM | 75 nM | – | RVYYHP (N-terminal Sar; C-terminal amide) [SEQ ID NO: 26 (Sar-Arg-Val-Tyr-Tyr-His-Pro-NH2)]
7.4 nM | 63 nM | 74.1% | 61.3% | 15.1% | > 10 µM | 480 nM | – | RVYRHPA (N-terminal Sar; C-terminal acid) [SEQ ID NO: 24 (Sar-Arg-Val-Tyr-Arg-His-Pro-Ala-OH)]
77 nM | 230 nM | 62.1% | 44.3% | 51.1% | 0.25 µM | 820 nM | 19.3% | RVYYHPI (N-terminal Sar; C-terminal amide) [SEQ ID NO: 15 (Sar-Arg-Val-Tyr-Tyr-His-Pro-Ile-NH2)]
> 10000 nM | 3600 nM | 86.6% | – | – | > 10 µM | > 10000 nM | – | RVYEHPA (N-terminal Sar; C-terminal acid) [SEQ ID NO: 20 (Sar-Arg-Val-Tyr-Glu-His-Pro-Ala-OH)]
11 nM | 39 nM | 84.9% | 61.2% | 10.3% | > 10 µM | 44 nM | – | RVYKHPA (N-terminal Sar; C-terminal acid) [SEQ ID NO: 23 (Sar-Arg-Val-Tyr-Lys-His-Pro-Ala-OH)]
13 nM | 37 nM | 75.9% | 58.1% | 6.2% | > 10 µM | 100 nM | – | RVYVHPA (N-terminal Me2Gly; C-terminal acid) [SEQ ID NO: 31 (Me2G-Arg-Val-Tyr-Val-His-Pro-Ala-OH)]
> 10000 nM | 13 nM | 82.7% | 64.4% | – | > 10 µM | 33 nM | – | RVYFHPA (N-terminal Sar; C-terminal acid) [SEQ ID NO: 21 (Sar-Arg-Val-Tyr-Phe-His-Pro-Ala-OH)]
> 10000 nM | 18 nM | 91.2% | 67.9% | – | > 10 µM | 31 nM | – | RVYYHPA (N-terminal Sar; C-terminal acid) [SEQ ID NO: 19 (Sar-Arg-Val-Tyr-Tyr-His-Pro-Ala-OH)]
92 nM | 140 nM | 76.9% | 56.9% | 24.4% | > 10 µM | 880 nM | – | RVYEHPI (N-terminal Sar; C-terminal acid) [SEQ ID NO: 16 (Sar-Arg-Val-Tyr-Glu-His-Pro-Ile-OH)]
250 nM | 27 nM | 74.3% | 54.5% | 5.2% | > 10 µM | 270 nM | – | RVYHHPA (N-terminal Sar; C-terminal acid) [SEQ ID NO: 22 (Sar-Arg-Val-Tyr-His-His-Pro-Ala-OH)]
